Reference: the Human Domainome abundance scans (Beltran et al. 2025)
± gives the uncertainty stated by the source.

B1: Zinc finger MYM-type protein 3, residues 589 to 668; numbered along this chain, Q14202 (parent)
chain: LSCHYCHSLFSGKPEVLDWQDQVFQFCCRDCCEDFKRLRGVVSQCEHCRQEKLLHEKLRFSGVEKSFCSEGCVLLYKQDF

Variants of: B1
Test: abundance fitness (aPCA) (normalised: wild type 0, dead -1); higher = more abundant; growth selection in yeast, the domain comes from the species named
Conditions: Homo sapiens

Variant	abundance fitness
LSCHYCHSLFSGKPEVLDWQDQVIQFCCRDCCEDFKRLRGVVSQCEHCRQEKLLHEKLRFSGVEKSFCSEGCVLLYKQDF	0.072 ± 0.078
LSCHYCHSLFSGKPEVLDWQDQVKQFCCRDCCEDFKRLRGVVSQCEHCRQEKLLHEKLRFSGVEKSFCSEGCVLLYKQDF	0.084 ± 0.045
LSCHYCHSLFSGKPEVLDWQDQVWQFCCRDCCEDFKRLRGVVSQCEHCRQEKLLHEKLRFSGVEKSFCSEGCVLLYKQDF	0.051 ± 0.045
LSCHYCHSLFSGKPEVLDWQDQVQQFCCRDCCEDFKRLRGVVSQCEHCRQEKLLHEKLRFSGVEKSFCSEGCVLLYKQDF	-0.038 ± 0.046
LSCHYCHSLFSGKPEVLDWQDQVTQFCCRDCCEDFKRLRGVVSQCEHCRQEKLLHEKLRFSGVEKSFCSEGCVLLYKQDF	-0.033 ± 0.048
LSCHYCHSLFSGKPEVLDWQDQVLQFCCRDCCEDFKRLRGVVSQCEHCRQEKLLHEKLRFSGVEKSFCSEGCVLLYKQDF	0.203 ± 0.041
LSCHYCHSLFSGKPEVLDWQDQVGQFCCRDCCEDFKRLRGVVSQCEHCRQEKLLHEKLRFSGVEKSFCSEGCVLLYKQDF	-0.136 ± 0.042
LSCHYCHSLFSGKPEVLDWQDQVEQFCCRDCCEDFKRLRGVVSQCEHCRQEKLLHEKLRFSGVEKSFCSEGCVLLYKQDF	-0.143 ± 0.045
LSCHYCHSLFSGKPEVLDWQDQVVQFCCRDCCEDFKRLRGVVSQCEHCRQEKLLHEKLRFSGVEKSFCSEGCVLLYKQDF	0.133 ± 0.041
LSCHYCHSLFSGKPEVLDWQDQVCQFCCRDCCEDFKRLRGVVSQCEHCRQEKLLHEKLRFSGVEKSFCSEGCVLLYKQDF	0.112 ± 0.057
LSCHYCHSLFSGKPEVLDWQDQVNQFCCRDCCEDFKRLRGVVSQCEHCRQEKLLHEKLRFSGVEKSFCSEGCVLLYKQDF	0.001 ± 0.083
LSCHYCHSLFSGKPEVLDWQDQVPQFCCRDCCEDFKRLRGVVSQCEHCRQEKLLHEKLRFSGVEKSFCSEGCVLLYKQDF	-0.383 ± 0.068
LSCHYCHSLFSGKPEVLDWQDQVDQFCCRDCCEDFKRLRGVVSQCEHCRQEKLLHEKLRFSGVEKSFCSEGCVLLYKQDF	-0.376 ± 0.064
LSCHYCHSLFSGKPEVLDWQDQVFCFCCRDCCEDFKRLRGVVSQCEHCRQEKLLHEKLRFSGVEKSFCSEGCVLLYKQDF	-0.081 ± 0.062
LSCHYCHSLFSGKPEVLDWQDQVFDFCCRDCCEDFKRLRGVVSQCEHCRQEKLLHEKLRFSGVEKSFCSEGCVLLYKQDF	0.085 ± 0.056
LSCHYCHSLFSGKPEVLDWQDQVFHFCCRDCCEDFKRLRGVVSQCEHCRQEKLLHEKLRFSGVEKSFCSEGCVLLYKQDF	0.122 ± 0.064
LSCHYCHSLFSGKPEVLDWQDQVFEFCCRDCCEDFKRLRGVVSQCEHCRQEKLLHEKLRFSGVEKSFCSEGCVLLYKQDF	0.226 ± 0.043
LSCHYCHSLFSGKPEVLDWQDQVFFFCCRDCCEDFKRLRGVVSQCEHCRQEKLLHEKLRFSGVEKSFCSEGCVLLYKQDF	-0.035 ± 0.073

Variant	abundance fitness
LSCHYCHSLFSGKPEVLDWQDQVFAFCCRDCCEDFKRLRGVVSQCEHCRQEKLLHEKLRFSGVEKSFCSEGCVLLYKQDF	-0.044 ± 0.04
LSCHYCHSLFSGKPEVLDWQDQVFGFCCRDCCEDFKRLRGVVSQCEHCRQEKLLHEKLRFSGVEKSFCSEGCVLLYKQDF	0.088 ± 0.039
LSCHYCHSLFSGKPEVLDWQDQEFQFCCRDCCEDFKRLRGVVSQCEHCRQEKLLHEKLRFSGVEKSFCSEGCVLLYKQDF	0.227 ± 0.049
LSCHYCHSLFSGKPEVLDWQDQQFQFCCRDCCEDFKRLRGVVSQCEHCRQEKLLHEKLRFSGVEKSFCSEGCVLLYKQDF	0.246 ± 0.044
LSCHYCHSLFSGKPEVLDWQDQKFQFCCRDCCEDFKRLRGVVSQCEHCRQEKLLHEKLRFSGVEKSFCSEGCVLLYKQDF	0.268 ± 0.055
LSCHYCHSLFSGKPEVLDWQDQDFQFCCRDCCEDFKRLRGVVSQCEHCRQEKLLHEKLRFSGVEKSFCSEGCVLLYKQDF	-0.085 ± 0.05
LSCHYCHSLFSGKPEVLDWQDQRFQFCCRDCCEDFKRLRGVVSQCEHCRQEKLLHEKLRFSGVEKSFCSEGCVLLYKQDF	0.294 ± 0.039
LSCHYCHSLFSGKPEVLDWQDQYFQFCCRDCCEDFKRLRGVVSQCEHCRQEKLLHEKLRFSGVEKSFCSEGCVLLYKQDF	-0.164 ± 0.073
LSCHYCHSLFSGKPEVLDWQDQNFQFCCRDCCEDFKRLRGVVSQCEHCRQEKLLHEKLRFSGVEKSFCSEGCVLLYKQDF	0.169 ± 0.056
LSCHYCHSLFSGKPEVLDWQDQWFQFCCRDCCEDFKRLRGVVSQCEHCRQEKLLHEKLRFSGVEKSFCSEGCVLLYKQDF	0.134 ± 0.044
LSCHYCHSLFSGKPEVLDWQDQCFQFCCRDCCEDFKRLRGVVSQCEHCRQEKLLHEKLRFSGVEKSFCSEGCVLLYKQDF	0.236 ± 0.046
LSCHYCHSLFSGKPEVLDWQDQMFQFCCRDCCEDFKRLRGVVSQCEHCRQEKLLHEKLRFSGVEKSFCSEGCVLLYKQDF	0.338 ± 0.047
LSCHYCHSLFSGKPEVLDWQDQTFQFCCRDCCEDFKRLRGVVSQCEHCRQEKLLHEKLRFSGVEKSFCSEGCVLLYKQDF	0.175 ± 0.047
LSCHYCHSLFSGKPEVLDWQDQLFQFCCRDCCEDFKRLRGVVSQCEHCRQEKLLHEKLRFSGVEKSFCSEGCVLLYKQDF	0.155 ± 0.04
LSCHYCHSLFSGKPEVLDWQDQGFQFCCRDCCEDFKRLRGVVSQCEHCRQEKLLHEKLRFSGVEKSFCSEGCVLLYKQDF	-0.003 ± 0.042
LSCHYCHSLFSGKPEVLDWQDQSFQFCCRDCCEDFKRLRGVVSQCEHCRQEKLLHEKLRFSGVEKSFCSEGCVLLYKQDF	0.287 ± 0.047
LSCHYCHSLFSGKPEVLDWQDQHFQFCCRDCCEDFKRLRGVVSQCEHCRQEKLLHEKLRFSGVEKSFCSEGCVLLYKQDF	0.111 ± 0.051
